Results taken from US20200239570A1 (CRESCENDO BIOLOGICS, published 2020).

How the values were obtained:
[1] = biological target: T1, mouse PD1 (R&D Systems cat no. 1021-PD) (mouse, UniProt Q02242 25-167); assay: HTRF binding assay, 2 nM mouse PD-1
T1 construct: bought recombinant protein; also called mouse PD-1 protein
T1 sequence (looked up): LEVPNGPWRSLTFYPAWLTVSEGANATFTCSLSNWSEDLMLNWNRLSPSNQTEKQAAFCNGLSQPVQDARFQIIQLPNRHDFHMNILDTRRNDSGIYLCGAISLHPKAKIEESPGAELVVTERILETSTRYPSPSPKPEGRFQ

[2] = biological target: T2, human PD-1 expressed on cells (CHO human PD-1 cells) (human, UniProt Q15116 21-288); assay: FMAT, His-tagged VH on CHO human PD-1 cells
T2 construct: CHO cells in the FMAT assays; Jurkat reporter cells in the reporter assay; primary CD4+ T cells in the mixed lymphocyte reaction; also called CHO TREX human PD1 cell line; CHO PD-1
T2 sequence (Q15116 21-288): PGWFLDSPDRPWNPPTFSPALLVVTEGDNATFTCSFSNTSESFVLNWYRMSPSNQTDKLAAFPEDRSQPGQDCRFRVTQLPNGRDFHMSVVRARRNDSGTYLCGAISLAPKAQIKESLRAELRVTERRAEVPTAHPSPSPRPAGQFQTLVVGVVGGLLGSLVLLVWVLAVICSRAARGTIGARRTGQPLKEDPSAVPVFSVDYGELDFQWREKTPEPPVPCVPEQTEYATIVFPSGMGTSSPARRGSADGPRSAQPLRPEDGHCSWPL

[3] = biological target: T3, recombinant human PD-1 Fc chimera (human, UniProt Q15116 25-167); assay: HTRF binding assay, His-tagged VH on 2 nM recombinant PD-1
T3 construct: Bought (R&D 1086-PD); Labelled with europium cryptate in the PD-L2 HTRF assay; also called human PD-1 (R&D Systems cat no. 1086-PD); human PD-1-huFc; not shown: human Fc of the bought chimera
T3 sequence (Q15116 25-167, change not shown): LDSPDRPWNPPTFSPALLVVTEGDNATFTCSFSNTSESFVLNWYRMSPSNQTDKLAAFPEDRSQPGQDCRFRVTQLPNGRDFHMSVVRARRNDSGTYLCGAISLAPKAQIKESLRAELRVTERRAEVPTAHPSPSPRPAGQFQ
Experimental: (§1) Purified VH were tested for their ability to bind to human PD-1 (R&D Systems cat no. 1086-PD), cynomolgus PD-1 (Acro Biosystems cat no. PD1-C5254) and mouse PD1 (R&D Systems cat no. 1021-PD) in an HTRF Binding assay format. All reagents and serially diluted VH were prepared in assay buffer containing PBS, 0.1% BSA and 0.4M Potassium Fluoride. Samples or assay buffer (non-specific binding) were incubated with 2 nM human/cynomolgus or mouse PD-1, 1 nM Anti human-Fc Cryptate PAb (Cisbio cat. no. 61HFCKLB) and 30 nM anti His-D2 (CisBio cat no 61HISDLA) in black 384-shallow well assay plates for a minimum of 3 hours at room temperature. Time-resolved fluorescent emission at 620 nm and 665 nm was measured following excitation at 337 nm on the BMG PHERAstar plate reader. The HTRF ratio were calculated ((665 nm emission/620 nm emission)*10000) and the data corrected for (non-specific binding) to give the specific binding signal.

[4] = biological target: T4, cynomolgus PD-1 (Acro Biosystems cat no. PD1-C5254) (cynomolgus, UniProt B0LAJ3 25-170); assay: as above
T4 construct: bought recombinant protein; also called cyno PD-1; cynomolgus PD-1 recombinant protein; not shown: Human Fc tag of the vendor's construct, and any linker to it; The Fc is implied by detection with anti human-Fc cryptate
T4 sequence (B0LAJ3 entry or part of it limits assumed): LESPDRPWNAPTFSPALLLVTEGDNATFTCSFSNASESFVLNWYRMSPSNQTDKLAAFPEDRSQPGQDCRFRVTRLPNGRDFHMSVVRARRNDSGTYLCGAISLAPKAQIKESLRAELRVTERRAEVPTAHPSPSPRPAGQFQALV
Experimental: as §1

[5] = biological target: T3, recombinant human PD-1 Fc chimera; assay: SPR (Biacore T200), PD-1-huFc amine-coupled to CM5, single cycle kinetics, 1:1 fit
Experimental: Binding kinetics of certain VH single domain antibodies binding to human PD-1-huFc were measured by surface plasmon resonance (SPR) technology using Biacore T200 instrument (GE Healthcare). Recombinant human PD-1-huFc was immobilized by standard amine coupling to CM5 sensorschip (GE Healthcare) using 0.01 mg/ml solution of antigen in 10 mM sodium acetate at pH 5.5. For the reference flow cell, a blank immobilisation was carried out. Single cycle kinetics assays were used to study the interaction, a five point, three-fold dilution series of each Humabody® was made with a top concentration of 30 nM. The binding kinetics were followed by flowing the Humabody® over the chip surface in HBS EP+ buffer at a flow rate of 30 μl/min. The contact time for each of the association steps was 180 seconds and the dissociation step was varied between 1200-3600 seconds. The data was fitted to a 1:1 binding model after double reference subtraction using the Biacore T200 Evaluation software.

[6] = biological target: T2, human PD-1 expressed on cells (CHO …); assay: FMAT epitope competition on CHO human PD-1 cells; competitor 2 nM 1.1-Strep tagged protein
Experimental: (§2) For the epitope competition assay reagents were prepared in FMAT assay buffer. […] Plates were incubated for a minimum of 1.5 hours at room temperature then fluorescence measured in the FL2 (502 nm-537 nm) and FL5 (677-800 nm) channels on the Mirrorball plate reader (TTP) following excitation at 488 nm and 640 nm. Data was expressed as a % of the total binding control (i.e. % control) after subtraction of the background signal determined from the non-specific binding control wells.

[7] = biological target: T2, human PD-1 expressed on cells (CHO …); assay: FMAT epitope competition on CHO human PD-1 cells; competitor 2 nM 2.1-Strep tagged protein
Experimental: as §2

[8] = biological target: T2, human PD-1 expressed on cells (CHO …); assay: 2.1 epitope competition assay (FMAT, CHO human PD-1 cells; competitor 2.1-Strep); VH pre-incubated in mouse serum, Day 0
Experimental: (§3) Serum stability of VH was assessed by measurement of its activity following incubation for 0, 1, 4 or 7 days in both human and mouse serum (Sigma M5905). The pre-incubated samples were serially diluted and tested in the 2.1 epitope competition assay.
as §2

[9] = biological target: T2, human PD-1 expressed on cells (CHO …); assay: 2.1 epitope competition assay (FMAT, CHO human PD-1 cells; competitor 2.1-Strep); VH pre-incubated in human serum at 37 C, Day 1
Experimental: as §3, §2

[10] = biological target: T2, human PD-1 expressed on cells (CHO …); assay: 2.1 epitope competition assay (FMAT, CHO human PD-1 cells; competitor 2.1-Strep); VH pre-incubated in human serum at 37 C, Day 4
Experimental: as §3, §2

[11] = biological target: T2, human PD-1 expressed on cells (CHO …); assay: 2.1 epitope competition assay (FMAT, CHO human PD-1 cells; competitor 2.1-Strep); VH pre-incubated in human serum at 37 C, Day 7
Experimental: as §3, §2

[12] = biological target: T2, human PD-1 expressed on cells (CHO …); assay: 2.1 epitope competition assay (FMAT, CHO human PD-1 cells; competitor 2.1-Strep); VH pre-incubated in mouse serum at 37 C, Day 1
Experimental: as §3, §2

[13] = biological target: T2, human PD-1 expressed on cells (CHO …); assay: 2.1 epitope competition assay (FMAT, CHO human PD-1 cells; competitor 2.1-Strep); VH pre-incubated in mouse serum at 37 C, Day 4
Experimental: as §3, §2

[14] = biological target: T2, human PD-1 expressed on cells (CHO …); assay: 2.1 epitope competition assay (FMAT, CHO human PD-1 cells; competitor 2.1-Strep); VH pre-incubated in mouse serum at 37 C, Day 7
Experimental: as §3, §2

[15] = biological target: T2, human PD-1 expressed on cells (CHO …); assay: 2.1 epitope competition assay (FMAT, CHO human PD-1 cells; competitor 2.1-Strep); VH pre-incubated in human serum, Day 0; Day 0, human serum
Experimental: as §3, §2

binding result [1]: no binding
EC50 [2]: 0.6 nM
EC50 [3]: 2.6 nM
EC50 [4]: 6 nM
Kd [5]: 4.24 nM
koff [5]: 0.00134 s⁻¹
kon [5]: 316000 M⁻¹ s⁻¹
IC50 [6]: 8.9 nM
IC50 [7]: 9.7 nM
IC50 [8]: 8.7 nM
IC50 [9]: 10.1 nM
IC50 [10]: 10.2 nM
IC50 [11]: 9.3 nM
IC50 [12]: 9.3 nM
IC50 [13]: 11.1 nM
IC50 [14]: 11.6 nM
IC50 [15]: 12.9 nM
B1: Humabody VH 1.39 (VHH)
VHH: EVQLVESGGGLVQPGRSLRLSCAASGFTFDDYALHWVRQAPGKDLEWVSGISWNGGSYGYADSVKGRFTISRDNAKNSLYLQMNSLRAEDTALYYCVREKGPGLTGSTADYYGLDAWGQGTMVTVSS
notes: human VH single domain antibody
